The values below come from PMC6997106, “The Trp triad within the V-domain of the receptor for advanced glycation end products modulates folding, stability and ligand binding” (Bioscience Reports, 2020).

The labels stand for the following.
B1: Recombinant human S100B (natural protein)
chain: MSELEKAMVALIDVFHQYSGREGDKHKLKKSELKELINNELSHFLEEIKEQEVVDKVMETLDNDGDGECDFQEFMAFVAMVTTACHEFFEHE
notes: S100B, human, uniprot P04271; Homodimer in the crystal structure 5D7F; also called calcium-loaded S100B
B2: RAGE V-domain (residues 23-132), wild type (domain or fragment, human, UniProt Q15109 23-132, looked up)
chain: AQNITARIGEPLVLKCKGAPKKPPQRLEWKLNTGRTEAWKVLSPQGGGPWDSVARVLPNGSLFLPAVGIQDEGIFRCQAMNRNGKETKSNYRVRVYQIPGKPEIVDSASE
notes: receptor for advanced glycation end products (RAGE), human, V-domain, residues 23-132 of uniprot Q15109; Cloned into pET15b by NcoI and XhoI; also called WT; wild-type V-domain; source: E. coli Shuffle T7 Express, purified (HisTrap HP, HiTrap SP FF cation exchange)
B3: RAGE V-domain (residues 23-132) W72A (domain or fragment, human, UniProt Q15109 23-132, looked up)
chain: AQNITARIGEPLVLKCKGAPKKPPQRLEWKLNTGRTEAWKVLSPQGGGPADSVARVLPNGSLFLPAVGIQDEGIFRCQAMNRNGKETKSNYRVRVYQIPGKPEIVDSASE
notes: RAGE, human, V-domain, residues 23-132 of uniprot Q15109; Same construct as m1 with the mutation; source: E. coli Shuffle T7 Express, purified (HisTrap HP, HiTrap SP FF cation exchange)
B5: RAGE V-domain (residues 23-132) W61A (domain or fragment, human, UniProt Q15109 23-132, looked up)
chain: AQNITARIGEPLVLKCKGAPKKPPQRLEWKLNTGRTEAAKVLSPQGGGPWDSVARVLPNGSLFLPAVGIQDEGIFRCQAMNRNGKETKSNYRVRVYQIPGKPEIVDSASE
notes: as for B3

Data set [1] concerns the molecule itself. Briefly: crystal structure; 2 mM S100B with 3 mM peptide W72, CaCl2 present; sitting drop, 0.1 M Na cacodylate pH 6.8, 22% PEG 3350, 5 mM CaCl2, 20°C.
Data set [2] deals with B2. Briefly: steady-state tryptophan fluorescence; emission spectra of V-domains alone and as V-domain:S100B complexes; excitation at 295 nm. Conditions: both partners purified.
Data set [3] addresses T1, RAGE V-domain (residues 23-132) W51A/W72A (human, UniProt Q15109 23-132, W51A | W72A).
T1 construct: RAGE, human, V-domain, residues 23-132 of uniprot Q15109; Same construct as m1 with the mutations; source: E. coli Shuffle T7 Express, purified (HisTrap HP, HiTrap SP FF cation exchange)
Described as above. Conditions: both partners purified.

Data set [4] concerns the target T2, RAGE V-domain (residues 23-132) W61A/W72A (human, UniProt Q15109 23-132, W61A | W72A).
T2 construct: RAGE, human, V-domain, residues 23-132 of uniprot Q15109; Same construct as m1 with the mutations; source: E. coli Shuffle T7 Express, purified (HisTrap HP, HiTrap SP FF cation exchange)
The description is as above. Conditions: both partners purified.

Data set [5] has as its target B3. Described as above. Conditions: both partners purified.
For data set [6], the target named is B5. The data set is described as above. Conditions: both partners purified.
Data set [7] concerns the target T3, RAGE V-domain (residues 23-132) W51A (human, UniProt Q15109 23-132, W51A).
T3 construct: RAGE, human, V-domain, residues 23-132 of uniprot Q15109; Same construct as m1 with the mutation; source: E. coli Shuffle T7 Express, purified (HisTrap HP, HiTrap SP FF cation exchange)
Described as above. Conditions: both partners purified.

The target of data set [8] is T4, RAGE V-domain (residues 23-132) W51A/W61A (human, UniProt Q15109 23-132, W51A | W61A).
T4 construct: RAGE, human, V-domain, residues 23-132 of uniprot Q15109; Same construct as m1 with the mutations; also called W51/W61; source: E. coli Shuffle T7 Express, purified (HisTrap HP, HiTrap SP FF cation exchange)
The description is as above. Conditions: both partners purified.

Data set [9] deals with B1. Briefly: tryptophan fluorescence lifetime; 1 µM V-domain, with S100B in the presence of 2 mM calcium; excitation 280 nm; amplitude weighted average lifetime τm. Conditions: both partners purified.
Data set [10] deals with B2. Briefly: fluorescence polarisation; 1 µM S100B-FITC in 50 mM Tris, pH 7.0, 2 mM CaCl2 titrated with V-domain stock solutions; 1:1 RAGE:S100B model; apparent. Conditions: both partners purified. In general terms: In fluorescence polarisation assays a small probe gives low polarisation when free and higher when bound to something large.
Data set [11] addresses T1, RAGE V-domain (residues 23-132) …. The description is as above. Conditions: both partners purified.
The target of data set [12] is T2, RAGE V-domain (residues 23-132) …. Described as above. Conditions: both partners purified.
Data set [13] has as its target B3. The description is as above. Conditions: both partners purified.
For data set [14], the target named is B5. The data set is described as above. Conditions: both partners purified.
Data set [15] concerns the target T3, RAGE V-domain (residues 23-132) W51A. The data set is described as above. Conditions: both partners purified.
Data set [16] deals with T4, RAGE V-domain (residues 23-132) …. The description is as above. Conditions: both partners purified.
Data set [17] has as its target B1. Briefly: crystal structure; 2 mM S100B with 3 mM peptide W72, CaCl2 present; sitting drop, 0.1 M Na cacodylate pH 6.8, 22% PEG 3350, 5 mM CaCl2, 20°C. Conditions: both partners purified.

With B1, the binding result in [1], in data set [2], in [3], in data set [4], in data set [5] and in [6] was “binds” throughout. Also, the binding result in data set [7] and in [8] was “binds” each time.

As for B2, in data set [9], the “Δτm (change of the average Trp fluorescence lifetime with S100B)” value is -0.83 ns.

B3: the “Δτm (change of the average Trp fluorescence lifetime with S100B)” value in [9] was -1 ns.

B4: FITC-labeled recombinant human S100B (natural protein)
chain: MSELEKAMVALIDVFHQYSGREGDKHKLKKSELKELINNELSHFLEEIKEQEVVDKVMETLDNDGDGECDFQEFMAFVAMVTTACHEFFEHE
modifications: fluorescein (FITC labeling kit, 5-fold excess of FITC over protein; sites not stated)
notes: S100B, human, uniprot P04271; the titrations were fitted with a 1:1 RAGE:S100B model; also called S100B-FITC; FITC-labeled S100B; source: labeled with an FITC labeling kit (Pierce/Thermo Fisher 53027)
Consider B4, for which the Kd in [10] is 2700 ± 300 nM; in data set [11], 460 ± 320 nM; in data set [12] it was 370 ± 90 nM; in data set [13], 1120 ± 1010 nM; in data set [14] it was 870 ± 40 nM; in data set [15], 480 ± 60 nM. In addition, in data set [16], the Kd came to 660 ± 120 nM.

B5: in [9], the “Δτm (change of the average Trp fluorescence lifetime with S100B)” value was -0.8 ns.

B6: RAGE-derived peptide W72 (RAGE residues 65-79) (peptide)
peptide: Ac-SPQGGGPWDSVARVL-NH2
notes: RAGE, human, residues 65-79; also called W72 peptide; source: synthetic peptide
In the case of B6, the binding result in data set [17] is reported as “binds”.
